The values that follow come from US20210388087A1 (Chugai, published 2021).

The chains are these.
B1: CE115HA000 G100bE one-arm antibody (antibody, human IgG1, kappa, L234A L235A, N297A, name in Kabat numbering)
heavy: QVQLVESGGGVVQPGRSLRLSCAASGFTFSNAWMHWVRQAPGKGLEWVAQIKAKSNNYATYYAESVKGRFTISRDDSKNSLYLQMNSLKTEDTAVYYCRYVHYGAYYEVDAWGQGTTVTVSSASTKGPSVFPLAPSSKSTSGGTAALGCLVKDYFPEPVTVSWNSGALTSGVHTFPAVLQSSGLYSLSSVVTVPSSSLGTQTYICNVNHKPSNTKVDKKVEPKSCDKTHTCPPCPAPEAAGGPSVFLFPPKPKDTLMISRTPEVTCVVVDVSHEDPEVKFNWYVDGVEVHNAKTKPREEQYASTYRVVSVLTVLHQDWLNGKEYKCKVSNKALPAPIEKTISKAKGQPREPQVYTLPPSRCELTKNQVSLSCAVKGFYPSDIAVEWESNGQPENNYKTTPPVLDSDGSFFLVSKLTVDKSRWQQGNVFSCSVMHEALHNHYTQKSLSLSPDYKDDDDK
chain: EPKSSDKTHTCPPCPAPELLGGPSVFLFPPKPKDTLMISRTPEVTCVVVDVSHEDPEVKFNWYVDGVEVHNAKTKPREEQYNSTYRVVSVLTVLHQDWLNGKEYKCKVSNKALPAPIEKTISKAKGQPREPQVCTLPPSRDELTKNQVSLWCLVKGFYPSDIAVEWESNGQPENNYKTTPPVLDSDGSFFLYSKLTVDKSRWQQGNVFSCSVMHEALHNRYTQKSLSLSP
light: DIVMTQSPLSLPVTPGEPASISCRSSQSLVHSNRNTYLHWYQQKPGQAPRLLIYKVSNRFSGVPDRFSGSGSGTDFTLKISRVEAEDVGVYYCGQGTQVPYTFGQGTKLEIKRTVAAPSVFIFPPSDEQLKSGTASVVCLLNNFYPREAKVQWKVDNALQSGNSQESVTEQDSKDSTYSLSSTLTLSKADYEKHKVYACEVTHQGLSSPVTKSFNRGEC
B2: CE115HA000 G100bS one-arm antibody (antibody, human IgG1, kappa, L234A L235A, N297A, name in Kabat numbering)
heavy: QVQLVESGGGVVQPGRSLRLSCAASGFTFSNAWMHWVRQAPGKGLEWVAQIKAKSNNYATYYAESVKGRFTISRDDSKNSLYLQMNSLKTEDTAVYYCRYVHYGAYYSVDAWGQGTTVTVSSASTKGPSVFPLAPSSKSTSGGTAALGCLVKDYFPEPVTVSWNSGALTSGVHTFPAVLQSSGLYSLSSVVTVPSSSLGTQTYICNVNHKPSNTKVDKKVEPKSCDKTHTCPPCPAPEAAGGPSVFLFPPKPKDTLMISRTPEVTCVVVDVSHEDPEVKFNWYVDGVEVHNAKTKPREEQYASTYRVVSVLTVLHQDWLNGKEYKCKVSNKALPAPIEKTISKAKGQPREPQVYTLPPSRCELTKNQVSLSCAVKGFYPSDIAVEWESNGQPENNYKTTPPVLDSDGSFFLVSKLTVDKSRWQQGNVFSCSVMHEALHNHYTQKSLSLSPDYKDDDDK
chain: EPKSSDKTHTCPPCPAPELLGGPSVFLFPPKPKDTLMISRTPEVTCVVVDVSHEDPEVKFNWYVDGVEVHNAKTKPREEQYNSTYRVVSVLTVLHQDWLNGKEYKCKVSNKALPAPIEKTISKAKGQPREPQVCTLPPSRDELTKNQVSLWCLVKGFYPSDIAVEWESNGQPENNYKTTPPVLDSDGSFFLYSKLTVDKSRWQQGNVFSCSVMHEALHNRYTQKSLSLSP
light: DIVMTQSPLSLPVTPGEPASISCRSSQSLVHSNRNTYLHWYQQKPGQAPRLLIYKVSNRFSGVPDRFSGSGSGTDFTLKISRVEAEDVGVYYCGQGTQVPYTFGQGTKLEIKRTVAAPSVFIFPPSDEQLKSGTASVVCLLNNFYPREAKVQWKVDNALQSGNSQESVTEQDSKDSTYSLSSTLTLSKADYEKHKVYACEVTHQGLSSPVTKSFNRGEC
B3: CE115HA000 H35D one-arm antibody (antibody, human IgG1, kappa, L234A L235A, N297A, name in Kabat numbering)
heavy: QVQLVESGGGVVQPGRSLRLSCAASGFTFSNAWMDWVRQAPGKGLEWVAQIKAKSNNYATYYAESVKGRFTISRDDSKNSLYLQMNSLKTEDTAVYYCRYVHYGAYYGVDAWGQGTTVTVSSASTKGPSVFPLAPSSKSTSGGTAALGCLVKDYFPEPVTVSWNSGALTSGVHTFPAVLQSSGLYSLSSVVTVPSSSLGTQTYICNVNHKPSNTKVDKKVEPKSCDKTHTCPPCPAPEAAGGPSVFLFPPKPKDTLMISRTPEVTCVVVDVSHEDPEVKFNWYVDGVEVHNAKTKPREEQYASTYRVVSVLTVLHQDWLNGKEYKCKVSNKALPAPIEKTISKAKGQPREPQVYTLPPSRCELTKNQVSLSCAVKGFYPSDIAVEWESNGQPENNYKTTPPVLDSDGSFFLVSKLTVDKSRWQQGNVFSCSVMHEALHNHYTQKSLSLSPDYKDDDDK
chain: EPKSSDKTHTCPPCPAPELLGGPSVFLFPPKPKDTLMISRTPEVTCVVVDVSHEDPEVKFNWYVDGVEVHNAKTKPREEQYNSTYRVVSVLTVLHQDWLNGKEYKCKVSNKALPAPIEKTISKAKGQPREPQVCTLPPSRDELTKNQVSLWCLVKGFYPSDIAVEWESNGQPENNYKTTPPVLDSDGSFFLYSKLTVDKSRWQQGNVFSCSVMHEALHNRYTQKSLSLSP
light: DIVMTQSPLSLPVTPGEPASISCRSSQSLVHSNRNTYLHWYQQKPGQAPRLLIYKVSNRFSGVPDRFSGSGSGTDFTLKISRVEAEDVGVYYCGQGTQVPYTFGQGTKLEIKRTVAAPSVFIFPPSDEQLKSGTASVVCLLNNFYPREAKVQWKVDNALQSGNSQESVTEQDSKDSTYSLSSTLTLSKADYEKHKVYACEVTHQGLSSPVTKSFNRGEC
B4: CE115HA000 G100bY one-arm antibody (antibody, human IgG1, kappa, L234A L235A, N297A, name in Kabat numbering)
heavy: QVQLVESGGGVVQPGRSLRLSCAASGFTFSNAWMHWVRQAPGKGLEWVAQIKAKSNNYATYYAESVKGRFTISRDDSKNSLYLQMNSLKTEDTAVYYCRYVHYGAYYYVDAWGQGTTVTVSSASTKGPSVFPLAPSSKSTSGGTAALGCLVKDYFPEPVTVSWNSGALTSGVHTFPAVLQSSGLYSLSSVVTVPSSSLGTQTYICNVNHKPSNTKVDKKVEPKSCDKTHTCPPCPAPEAAGGPSVFLFPPKPKDTLMISRTPEVTCVVVDVSHEDPEVKFNWYVDGVEVHNAKTKPREEQYASTYRVVSVLTVLHQDWLNGKEYKCKVSNKALPAPIEKTISKAKGQPREPQVYTLPPSRCELTKNQVSLSCAVKGFYPSDIAVEWESNGQPENNYKTTPPVLDSDGSFFLVSKLTVDKSRWQQGNVFSCSVMHEALHNHYTQKSLSLSPDYKDDDDK
chain: EPKSSDKTHTCPPCPAPELLGGPSVFLFPPKPKDTLMISRTPEVTCVVVDVSHEDPEVKFNWYVDGVEVHNAKTKPREEQYNSTYRVVSVLTVLHQDWLNGKEYKCKVSNKALPAPIEKTISKAKGQPREPQVCTLPPSRDELTKNQVSLWCLVKGFYPSDIAVEWESNGQPENNYKTTPPVLDSDGSFFLYSKLTVDKSRWQQGNVFSCSVMHEALHNRYTQKSLSLSP
light: DIVMTQSPLSLPVTPGEPASISCRSSQSLVHSNRNTYLHWYQQKPGQAPRLLIYKVSNRFSGVPDRFSGSGSGTDFTLKISRVEAEDVGVYYCGQGTQVPYTFGQGTKLEIKRTVAAPSVFIFPPSDEQLKSGTASVVCLLNNFYPREAKVQWKVDNALQSGNSQESVTEQDSKDSTYSLSSTLTLSKADYEKHKVYACEVTHQGLSSPVTKSFNRGEC
B5: CE115HA000 G100bF one-arm antibody (antibody, human IgG1, kappa, L234A L235A, N297A, name in Kabat numbering)
heavy: QVQLVESGGGVVQPGRSLRLSCAASGFTFSNAWMHWVRQAPGKGLEWVAQIKAKSNNYATYYAESVKGRFTISRDDSKNSLYLQMNSLKTEDTAVYYCRYVHYGAYYFVDAWGQGTTVTVSSASTKGPSVFPLAPSSKSTSGGTAALGCLVKDYFPEPVTVSWNSGALTSGVHTFPAVLQSSGLYSLSSVVTVPSSSLGTQTYICNVNHKPSNTKVDKKVEPKSCDKTHTCPPCPAPEAAGGPSVFLFPPKPKDTLMISRTPEVTCVVVDVSHEDPEVKFNWYVDGVEVHNAKTKPREEQYASTYRVVSVLTVLHQDWLNGKEYKCKVSNKALPAPIEKTISKAKGQPREPQVYTLPPSRCELTKNQVSLSCAVKGFYPSDIAVEWESNGQPENNYKTTPPVLDSDGSFFLVSKLTVDKSRWQQGNVFSCSVMHEALHNHYTQKSLSLSPDYKDDDDK
chain: EPKSSDKTHTCPPCPAPELLGGPSVFLFPPKPKDTLMISRTPEVTCVVVDVSHEDPEVKFNWYVDGVEVHNAKTKPREEQYNSTYRVVSVLTVLHQDWLNGKEYKCKVSNKALPAPIEKTISKAKGQPREPQVCTLPPSRDELTKNQVSLWCLVKGFYPSDIAVEWESNGQPENNYKTTPPVLDSDGSFFLYSKLTVDKSRWQQGNVFSCSVMHEALHNRYTQKSLSLSP
light: DIVMTQSPLSLPVTPGEPASISCRSSQSLVHSNRNTYLHWYQQKPGQAPRLLIYKVSNRFSGVPDRFSGSGSGTDFTLKISRVEAEDVGVYYCGQGTQVPYTFGQGTKLEIKRTVAAPSVFIFPPSDEQLKSGTASVVCLLNNFYPREAKVQWKVDNALQSGNSQESVTEQDSKDSTYSLSSTLTLSKADYEKHKVYACEVTHQGLSSPVTKSFNRGEC
B6: CE115HA000 G100bL one-arm antibody (antibody, human IgG1, kappa, L234A L235A, N297A, name in Kabat numbering)
heavy: QVQLVESGGGVVQPGRSLRLSCAASGFTFSNAWMHWVRQAPGKGLEWVAQIKAKSNNYATYYAESVKGRFTISRDDSKNSLYLQMNSLKTEDTAVYYCRYVHYGAYYLVDAWGQGTTVTVSSASTKGPSVFPLAPSSKSTSGGTAALGCLVKDYFPEPVTVSWNSGALTSGVHTFPAVLQSSGLYSLSSVVTVPSSSLGTQTYICNVNHKPSNTKVDKKVEPKSCDKTHTCPPCPAPEAAGGPSVFLFPPKPKDTLMISRTPEVTCVVVDVSHEDPEVKFNWYVDGVEVHNAKTKPREEQYASTYRVVSVLTVLHQDWLNGKEYKCKVSNKALPAPIEKTISKAKGQPREPQVYTLPPSRCELTKNQVSLSCAVKGFYPSDIAVEWESNGQPENNYKTTPPVLDSDGSFFLVSKLTVDKSRWQQGNVFSCSVMHEALHNHYTQKSLSLSPDYKDDDDK
chain: EPKSSDKTHTCPPCPAPELLGGPSVFLFPPKPKDTLMISRTPEVTCVVVDVSHEDPEVKFNWYVDGVEVHNAKTKPREEQYNSTYRVVSVLTVLHQDWLNGKEYKCKVSNKALPAPIEKTISKAKGQPREPQVCTLPPSRDELTKNQVSLWCLVKGFYPSDIAVEWESNGQPENNYKTTPPVLDSDGSFFLYSKLTVDKSRWQQGNVFSCSVMHEALHNRYTQKSLSLSP
light: DIVMTQSPLSLPVTPGEPASISCRSSQSLVHSNRNTYLHWYQQKPGQAPRLLIYKVSNRFSGVPDRFSGSGSGTDFTLKISRVEAEDVGVYYCGQGTQVPYTFGQGTKLEIKRTVAAPSVFIFPPSDEQLKSGTASVVCLLNNFYPREAKVQWKVDNALQSGNSQESVTEQDSKDSTYSLSSTLTLSKADYEKHKVYACEVTHQGLSSPVTKSFNRGEC

For the test, the target named is T1, CD3 epsilon homodimer protein (UniProt P07766 23-126).
T1 construct: immobilized on Sensor chip CM4 by amine coupling; also called CD3 (CD3 epsilon)
T1 sequence (P07766 23-126): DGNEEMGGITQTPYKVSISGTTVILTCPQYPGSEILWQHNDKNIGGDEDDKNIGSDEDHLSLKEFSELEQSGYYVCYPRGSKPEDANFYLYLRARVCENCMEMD
Nature of the test: SPR (Biacore T200), CD3 epsilon homodimer on CM4 chip, one-arm antibody as analyte, 25 C.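 Also: homodimer attached to the sensor surface via amine coupling, HBS-EP+ used as running buffer during binding runs.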 Background: In SPR one partner is held on a chip, and binding of the other changes the refractive index at the surface.
Experimental: An appropriate amount of CD3 epsilon homodimer protein was immobilized onto Sensor chip CM4 (GE Healthcare Japan Corp.) by the amine coupling method. Then, the antibody having an appropriate concentration was injected thereto as an analyte and allowed to interact with the CD3 epsilon homodimer protein on the sensor chip. Then, the sensor chip was regenerated by the injection of 10 mmol/L glycine-HCl (pH 1.5). The assay was conducted at 25 degrees C., and HBS-EP+(GE Healthcare Japan Corp.) was used as a running buffer. […] Each parameter was calculated using Biacore T200 Evaluation Software (GE Healthcare Japan Corp.).
Consider B1, for which the “ratio of amounts bound (altered form / CE115HA000)” value stood at 0.26.
For B2, the “ratio of amounts bound (altered form / CE115HA000)” value was 0.52.
As to B3, the “ratio of amounts bound (altered form / CE115HA000)” value is 0.2.
Next, B4: 0.23; B5: 0.3; B6: 0.27.
